Experiment [1] has as its target T1, human LAP-TGFB1 Fc fusion (human).
T1 construct: also called human LAP-TGFβ1-Fc; human LAP-TGFβ-Fc isoform 1
The experiment in a line: SPR pH 7.4, antigen-Fc captured, Fab analyte.

The target in experiment [2] is T1, human LAP-TGFB1 Fc fusion. The experiment is described as follows: SPR pH 7.4, antigen-Fc captured, Fab analyte. This is another data set of the same source.
The target in experiment [3] is T1, human LAP-TGFB1 Fc fusion. The experiment in a line: BLI off-rate screen. An outline of the steps: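 Tyrosine-substituted CDR Fab variants loaded at 200 nM on FAB2G biosensors, equilibrated 1 h at RT, then exposed to 100 nM human LAP-TGFβ1 for 180 s and dissociated 180 s. Off-rate from 1:1 model fit of dissociation phase only, after negative-control Fab subtraction.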

For experiment [4], the target named is T1, human LAP-TGFB1 Fc fusion. The experiment is described as follows: BLI off-rate screen. As for the experimental part:
The Fab mutants including a positive control, 20E6 Fab, and a negative control Fab (Molecular Innovations, catalog HU-FAB-4510) were diluted to 200 nM in assay buffer and loaded to FAB2G sensors for 180 seconds followed by a one-hour incubation at room temperature in assay buffer to equilibrate the tips. The Fab loaded sensors were assessed for binding with 100 nM human LAP-TGFβ for 180 seconds followed by a 180 second dissociation phase in assay buffer on a ForteBio HTX (software version 9.0.0.66). Non-specific binding to the negative control Fab was subtracted and the binding sensorgrams were aligned to the start of the association phase on the X and Y axis. The Fab binding was fit with the 1:1 binding model, dissociation phase only, with local fitting using ForteBio Data Analysis 9.0 software.
This is another data set of the same source.

The target in experiment [5] is T2, human LAP-TGFB2 Fc fusion (human).
T2 construct: also called human LAP-TGFβ2; LAP-TGFβ isoform 2
T2 sequence (chain, as listed by the source limits assumed): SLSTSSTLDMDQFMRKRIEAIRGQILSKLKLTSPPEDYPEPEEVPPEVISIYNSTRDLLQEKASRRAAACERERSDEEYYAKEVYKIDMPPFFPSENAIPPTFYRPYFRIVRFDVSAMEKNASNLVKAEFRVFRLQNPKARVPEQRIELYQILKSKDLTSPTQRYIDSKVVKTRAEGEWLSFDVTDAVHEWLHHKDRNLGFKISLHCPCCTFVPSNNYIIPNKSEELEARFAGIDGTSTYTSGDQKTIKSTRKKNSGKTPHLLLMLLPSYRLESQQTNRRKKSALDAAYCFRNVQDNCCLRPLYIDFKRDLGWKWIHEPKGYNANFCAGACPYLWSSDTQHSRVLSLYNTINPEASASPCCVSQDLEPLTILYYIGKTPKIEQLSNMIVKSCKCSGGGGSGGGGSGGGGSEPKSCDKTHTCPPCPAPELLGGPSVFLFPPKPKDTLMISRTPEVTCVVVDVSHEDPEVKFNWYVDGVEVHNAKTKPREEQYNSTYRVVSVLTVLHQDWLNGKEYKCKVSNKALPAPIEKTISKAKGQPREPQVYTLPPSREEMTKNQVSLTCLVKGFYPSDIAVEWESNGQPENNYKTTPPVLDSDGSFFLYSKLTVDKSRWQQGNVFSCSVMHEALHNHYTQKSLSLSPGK
The experiment in a line: SPR. The procedure:
(§1) A Series S CM4 sensor chip (GE Healthcare, catalog BR100534) was immobilized with an anti-human Fc capture antibody following the kit protocol (GE Healthcare, catalog BR100839) on a Biacore T200 instrument with 1× HBS-EP+ (Teknova, catalog H8022). […] Binding specificity between human LAP-TGFβ isoforms 2 and 3 and the tyrosine scanning double mutants were performed in 1× HEPES-buffered saline with EDTA and surfactant (HBS)-EP)+with 0.1 mg/mL BSA at 25° C. […] The binding data were double referenced by subtraction of signal from a reference (capture surface only) flow cell and the negative control 0 nM Fab injection. Binding rate constants were determined by fitting the data with a 1:1 binding model (GE Healthcare Biacore T200 Evaluation software 3.0).
Background: In SPR one partner is held on a chip, and binding of the other changes the refractive index at the surface.

In experiment [6] the target is T3, human LAP-TGFB3 Fc fusion (human).
T3 construct: also called human LAP-TGFβ3; LAP-TGFβ isoform 3
T3 sequence (chain, as listed by the source limits assumed): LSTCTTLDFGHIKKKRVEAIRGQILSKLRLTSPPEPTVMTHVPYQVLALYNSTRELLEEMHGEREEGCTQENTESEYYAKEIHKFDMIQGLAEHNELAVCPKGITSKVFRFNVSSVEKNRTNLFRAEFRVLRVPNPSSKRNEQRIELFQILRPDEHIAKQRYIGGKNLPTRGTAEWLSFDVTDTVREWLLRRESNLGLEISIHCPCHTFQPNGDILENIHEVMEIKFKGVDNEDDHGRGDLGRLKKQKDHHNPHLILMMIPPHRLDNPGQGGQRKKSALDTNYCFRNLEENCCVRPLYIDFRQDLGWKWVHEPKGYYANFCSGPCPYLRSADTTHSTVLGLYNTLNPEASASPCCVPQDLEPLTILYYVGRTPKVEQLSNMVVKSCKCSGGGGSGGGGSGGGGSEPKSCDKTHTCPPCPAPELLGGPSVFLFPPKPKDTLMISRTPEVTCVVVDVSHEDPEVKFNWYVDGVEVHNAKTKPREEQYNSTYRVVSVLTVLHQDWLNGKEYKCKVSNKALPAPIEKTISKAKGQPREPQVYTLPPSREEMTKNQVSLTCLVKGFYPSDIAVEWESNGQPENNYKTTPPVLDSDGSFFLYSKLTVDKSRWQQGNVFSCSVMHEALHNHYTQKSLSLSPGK
The experiment in a line: SPR. The procedure: as §1

The target in experiment [7] is T1, human LAP-TGFB1 Fc fusion. The experiment is described as follows: SPR.
Experiment [8] deals with T1, human LAP-TGFB1 Fc fusion. The experiment in a line: SPR, antigen-Fc captured, Fab analyte.
The target of experiment [9] is T1, human LAP-TGFB1 Fc fusion. The experiment is described as follows: SPR pH 6.0, antigen-Fc captured, Fab analyte. An outline of the steps:
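Biacore T200 SPR at pH 6.0 in HBS-EP+, antigen-Fc captured on anti-human Fc CM4 surface with Fab as analyte. Sensorgrams double-referenced against capture-only flow cell and 0 nM Fab injection; rate constants fitted to a 1:1 binding model.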

The target of experiment [10] is T1, human LAP-TGFB1 Fc fusion. The experiment in a line: SPR, antigen-Fc captured, Fab analyte. An excerpt:
(§2) This Example describes the isoform specificity of the yeast display mutants to bind to human LAP-TGFβ isoforms 1, 2, and 3 using surface plasmon resonance. A Series S CM4 sensor chip (GE Healthcare, catalog BR100534) was immobilized with an anti-human Fc capture antibody following the kit protocol (GE Healthcare, catalog BR100839) on a Biacore T200 instrument with 1× HBS-EP+ (Teknova, catalog H8022). […] Binding specificity experiments between human LAP-TGFβ isoforms 2 and 3 and yeast display mutants were performed in 1× HBS-EP+ with 0.1 mg/mL BSA at 25° C. Approximately 20-40 RU amounts of human LAP-TGFβ2 and 3 were captured to the anti-human Fc surface followed by injection of 1000 nM Fab including a negative control 0 nM Fab. The binding data were double referenced by subtraction of signal from a reference (capture surface only) flow cell and the negative control 0 nM Fab injection. Binding rate constants were determined by fitting the data with a 1:1 binding model (GE Healthcare Biacore T200 Evaluation software 3.0).
This is another data set of the same source.

The target in experiment [11] is T4, human LAP-TGFβ1 (construct not stated) (human, UniProt P01137 30-390).
T4 construct: also called human LAP-TGFβ isoform 1; titrant
T4 sequence (P01137 30-390 limits assumed): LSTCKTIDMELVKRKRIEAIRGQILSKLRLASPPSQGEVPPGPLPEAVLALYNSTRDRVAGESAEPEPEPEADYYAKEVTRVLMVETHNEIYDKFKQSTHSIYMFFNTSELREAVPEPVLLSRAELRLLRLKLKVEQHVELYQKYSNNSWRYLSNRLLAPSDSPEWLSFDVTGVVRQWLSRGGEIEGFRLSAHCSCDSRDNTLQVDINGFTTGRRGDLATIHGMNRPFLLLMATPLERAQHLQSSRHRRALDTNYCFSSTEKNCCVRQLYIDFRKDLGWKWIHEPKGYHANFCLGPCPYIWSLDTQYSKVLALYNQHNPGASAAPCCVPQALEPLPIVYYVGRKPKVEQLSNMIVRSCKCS
The experiment in a line: KinExA, Fab as constant binding partner. As for the experimental part: An orthogonal kinetic exclusion assay (KinExA) method was used in this study to measure the affinity of an affinity-matured anti-LAP-TGF β1 Fab 69BJN (referred to as the constant binding partner, CBP) and human LAP-TGFβ1 (referred to as the titrant). […] Two equilibrium experiments were prepared in assay buffer (1× PBS, 1 mg/mL BSA, and 0.05% NaN₃) with 5 pM or 100 pM of 69BJN as CBP followed by mixing and equilibrating with 1:10 serially diluted human LAP-TGFβ1 from 10 nM to 1 pM including a negative control 0 nM. The KinExA method was performed as follows: PMMA beads were loaded into the flow cell, a single concentration of titrant human LAP-TGFβ1 at equilibrium with 69BJN CBP was flowed over the flow cell, free CBP bound by PMMA beads was detected with rabbit anti-human IgG, F(ab′)₂ fragment specific-647 conjugate (Jackson Immunoresearch, catalog 309-005-006). This method was repeated in duplicate over the entire concentration series for each of the two different equilibrium series. The binding signals were analyzed with KinExA Pro software (version 4.4.26) where the free CBP binding signals were converted into percent free response and plotted against the titrant concentration series. The equilibrium KD was determined by using the titrant concentration as a reference and calculating percent activity of the ligand (CBP).
A general note: In KinExA the mixture passes briefly over coated beads that capture the unbound partner.

The target in experiment [12] is T2, human LAP-TGFB2 Fc fusion. The experiment in a line: SPR.
Excerpt: as §2
This is another data set of the same source.

Experiment [13] concerns the target T3, human LAP-TGFB3 Fc fusion. The experiment is described as follows: SPR.
Excerpt: as §2
The source holds these as a separate data set.

“And” between values parts separate entries of the source, which are not always exact repeats. Equal entries are not always repeated. Where two headings read alike, the source gives them in different places.

T1 sequence (chain, as listed by the source limits assumed): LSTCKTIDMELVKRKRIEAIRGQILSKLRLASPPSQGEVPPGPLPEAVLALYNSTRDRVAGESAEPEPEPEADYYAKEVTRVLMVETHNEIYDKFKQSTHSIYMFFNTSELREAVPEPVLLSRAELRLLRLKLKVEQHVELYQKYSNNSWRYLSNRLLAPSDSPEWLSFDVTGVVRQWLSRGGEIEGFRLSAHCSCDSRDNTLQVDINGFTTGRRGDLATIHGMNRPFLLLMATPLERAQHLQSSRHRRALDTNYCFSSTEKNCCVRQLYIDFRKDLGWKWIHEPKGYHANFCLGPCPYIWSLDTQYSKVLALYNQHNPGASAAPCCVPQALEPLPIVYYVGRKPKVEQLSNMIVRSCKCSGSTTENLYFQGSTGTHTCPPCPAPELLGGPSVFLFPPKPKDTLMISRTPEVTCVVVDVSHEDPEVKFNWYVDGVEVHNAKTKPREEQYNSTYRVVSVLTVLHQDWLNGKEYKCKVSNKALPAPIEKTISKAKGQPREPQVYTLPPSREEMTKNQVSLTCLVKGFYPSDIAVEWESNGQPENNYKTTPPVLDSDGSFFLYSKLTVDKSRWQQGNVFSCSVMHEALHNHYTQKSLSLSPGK

B1: 20E6 Fab (80BGJ/85BIT) (Fab, V domains shown)
VH: EVQLVQSGAEVKKPGASVKVSCKASGYTFTSYWMHWVRQAPGQGLEWMGRIDPQSGGIKYAQKFQGRATLTVDTSTSTAYMELSRLRSDDTAVYYCARWDYGGYFDVWGQGTLVTVSS
VL: DIQMTQSPSSLSASVGDRVTITCRASQDITNYLNWYQQKPGKAVKLLIYYTSRLHSGVPSRFSGSGSGTDYTLTISSLQPEDFATYFCQQGDTLPWTFGQGTKLEIKR
notes: also called 20E6 (80BGJ); 20E6 (85BIT)
Usually Kd stands for a measure of binding affinity in units of concentration. A high value points to weaker binding. Usually koff stands for the rate constant with which the complex falls apart. Read a low koff as a long-lived complex. Broadly, the kon is a measure of how fast the partners come together. A high value points to fast association. Regarding B1, the Kd in [1] came out at 58.5 nM; in [2], 58.5 nM; in [8], 81.2 nM; in experiment [9], 103 nM; in experiment [10], 79.9 nM. The koff was 0.0769 s⁻¹ in [1]; 0.0769 s⁻¹ in [2]; 0.0468 s⁻¹ and 0.0381 s⁻¹ in [3]; 0.0468 s⁻¹ and 0.0381 s⁻¹ in [4]; 0.103 s⁻¹ in [8]; 0.096 s⁻¹ in [9]. Further, the koff in experiment [10] came out at 0.0769 s⁻¹. The kon in experiment [1] stood at 1.32e+06 M⁻¹ s⁻¹; in [2], 1.32e+06 M⁻¹ s⁻¹; in experiment [8], 1.45e+06 M⁻¹ s⁻¹; in [9], 934000 M⁻¹ s⁻¹; in experiment [10], 960000 M⁻¹ s⁻¹. Moreover, the “Fold improvement in KD” value in experiment [2], in experiment [8] and in [10] was 1 fold each time. The binding result in experiment [5] and in experiment [6] was “no binding (tested: 1000 nM Fab)” in each case. The “Fold change in KD from pH 7.4 to pH 6” value in experiment [7] was 1.8 fold.

B2: VH W33Y/VL R53Y (91BJM) (Fab, V domains shown)
VH: EVQLVQSGAEVKKPGASVKVSCKASGYTFTSYYMHWVRQAPGQGLEWMGRIDPQSGGIKYAQKFQGRATLTVDTSTSTAYMELSRLRSDDTAVYYCARWDYGGYFDVWGQGTLVTVSS
VL: DIQMTQSPSSLSASVGDRVTITCRASQDITNYLNWYQQKPGKAVKLLIYYTSYLHSGVPSRFSGSGSGTDYTLTISSLQPEDFATYFCQQGDTLPWTFGQGTKLEIKR
notes: also called VH33/VL53
Turning to B2, in experiment [5], the binding result was “no binding (tested: 1000 nM Fab)”. Besides, the binding result in [6] is “no binding (tested: 1000 nM Fab)”. Also, in [8], the “Fold improvement in KD” value turned out to be 7 fold, the Kd stood at 11.8 nM, the koff was 0.0154 s⁻¹ and the kon amounted to 910000 M⁻¹ s⁻¹.

B3: 69BJN (Fab, V domains shown)
VH: EVQLVQSGAEVKKPGASVKVSCKASGYTFTSYDMHWVRQAPGQGLEWMGRIDPQSGGTKYAQKFQGRATLTVDTSTSTAYMELSRLRSDDTAVYYCARWDYGGYFDVWGQGTLVTVSS
VL: DIQMTQSPSSLSASVGDRVTITCRASQDIYNYLNWYQQKPGKAVKLLIYYTSVLHSGVPSRFSGSGSGTDYTLTISSLQPEDFATYFCQQGDTLPWTFGQGTKLEIKR
notes: also called VH W33D I58T / VL T30Y R53V (69BJN)
Molecule B3 displayed a Kd in experiment [11] of 0.028 nM. Moreover, in experiment [12], the binding result is given as “no binding (tested: 1000 nM Fab)”. In experiment [13], the binding result was “no binding (tested: 1000 nM Fab)”. Besides, in [10], the “Fold improvement in KD” value was 695 fold, the Kd is 0.115 nM, the koff came out at 0.000488 s⁻¹ and the on-rate (kon) amounted to 4.25e+06 M⁻¹ s⁻¹.

B4: VH W33Y/VL T93Y (92BJM) (Fab, V domains shown)
VH: EVQLVQSGAEVKKPGASVKVSCKASGYTFTSYYMHWVRQAPGQGLEWMGRIDPQSGGIKYAQKFQGRATLTVDTSTSTAYMELSRLRSDDTAVYYCARWDYGGYFDVWGQGTLVTVSS
VL: DIQMTQSPSSLSASVGDRVTITCRASQDITNYLNWYQQKPGKAVKLLIYYTSRLHSGVPSRFSGSGSGTDYTLTISSLQPEDFATYFCQQGDYLPWTFGQGTKLEIKR
notes: also called VH33/VL93
Regarding B4, the binding result in experiment [5] is given as “no binding (tested: 1000 nM Fab)”. Besides, the binding result in experiment [6] was “no binding (tested: 1000 nM Fab)”. In [8], the “Fold improvement in KD” value is 4 fold, the Kd was 20.6 nM, the koff is 0.0134 s⁻¹ and the kon was 650000 M⁻¹ s⁻¹.

B5: VH W33Y/VL T30Y (90BJM) (Fab, V domains shown)
VH: EVQLVQSGAEVKKPGASVKVSCKASGYTFTSYYMHWVRQAPGQGLEWMGRIDPQSGGIKYAQKFQGRATLTVDTSTSTAYMELSRLRSDDTAVYYCARWDYGGYFDVWGQGTLVTVSS
VL: DIQMTQSPSSLSASVGDRVTITCRASQDIYNYLNWYQQKPGKAVKLLIYYTSRLHSGVPSRFSGSGSGTDYTLTISSLQPEDFATYFCQQGDTLPWTFGQGTKLEIKR
notes: also called VH33/VL30
On to B5, for which, in experiment [5], the binding result is listed as “no binding (tested: 1000 nM Fab)”. Moreover, the binding result in [6] was “no binding (tested: 1000 nM Fab)”. In experiment [8], the “Fold improvement in KD” value was determined as 20 fold, the Kd worked out at 4 nM, the koff was determined as 0.0075 s⁻¹ and the kon amounted to 1.89e+06 M⁻¹ s⁻¹.

Values taken from patent publication US20230272056A1 (Merck Sharp & Dohme, published 2023).
